Source: patent US20240342207, “MODIFIED NUCLEIC ACID COMPOSITIONS AND ASSOCIATED METHODS FOR TREATMENT OF PHENYLKETONURIA” (BOARD OF REGENTS, THE UNIVERSITY OF TEXAS SYSTEM, published 2024)
Positions count from the first letter of the chain named.

Columns and labels:
Conditions in all cases: tags: His-tag, E. coli; stem-loop
[1] = biological target: T1, PAH TH63-64PN (Homo sapiens, UniProt P00439 P00439:1-452, T63P,H64N); test: EMSA; also decreased affinity in quantified assay
T1 sequence: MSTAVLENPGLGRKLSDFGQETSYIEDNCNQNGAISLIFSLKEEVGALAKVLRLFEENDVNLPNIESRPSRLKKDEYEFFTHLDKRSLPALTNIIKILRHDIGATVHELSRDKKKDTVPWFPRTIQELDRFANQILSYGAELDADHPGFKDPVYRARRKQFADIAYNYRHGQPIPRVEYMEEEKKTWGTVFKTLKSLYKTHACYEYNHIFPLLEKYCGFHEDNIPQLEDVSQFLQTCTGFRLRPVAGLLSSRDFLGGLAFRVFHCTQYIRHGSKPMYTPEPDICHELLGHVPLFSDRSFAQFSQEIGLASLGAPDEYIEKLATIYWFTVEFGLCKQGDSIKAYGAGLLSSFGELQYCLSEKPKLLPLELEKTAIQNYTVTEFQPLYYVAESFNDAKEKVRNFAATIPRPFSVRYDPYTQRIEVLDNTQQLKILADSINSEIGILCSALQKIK
Excerpt: (§1) It was reasoned that supplementing lncRNAs might improve the catalytic activities of the PAH mutants, leading to reduced serum Phe concentrations and improved symptoms in patients with PKU. Scramble (Scr) and HULC mimics representing wild-type HULC nt. 181-201 and HULC A191G mutated sequences were designed for the following studies. 17 PAH mutants that were identified from patients with PKU and are known to affect the enzymatic activity of PAH (21, 22) were selected, and bacterially-expressed wild-type and mutant PAH (FIG. 10 and see FIG. S13A in Li et al. 2021) were collected. […] The denatured wild-type PAH proteins were included as a negative control.
(§2) RNA Electrophoretic Mobility Shift Assay (EMSA). The gel mobility shift assay was performed as previously described (42). Briefly, 500 ng recombinant His-tagged wild-type PAH or mutants were incubated with 0.035 μmol labeled probe in a RNA-protein binding buffer [(50 mM Tris-HCl 7.9, 10% glycerol, 100 mM KCl, 5 mM MgCl₂, 10 mM (3-ME, 0.1% NP40] for 30 min at 30° C. For cold RNA competition, 0.035 μmol radiolabeled RNA probes were first mixed with 7 μmol cold RNA competitors and then subjected to the gel shift assay.

[2] = biological target: T2, PAH N207S (Homo sapiens, UniProt P00439 P00439:1-452, N207S); test: EMSA; also decreased affinity in quantified assay
T2 sequence: T1 sequence with P63T, N64H, N207S
Excerpt: as §1, §2

[3] = biological target: T3, PAH S349L (Homo sapiens, UniProt P00439 P00439:1-452, S349L); test: EMSA; also decreased affinity in quantified assay
T3 sequence: T1 sequence with P63T, N64H, S349L
Excerpt: as §1, §2

[4] = biological target: T4, PAH F299C (Homo sapiens, UniProt P00439 P00439:1-452, F299C); test: EMSA; one of 13 of 17 binding mutants; affinity not decreased
T4 sequence: T1 sequence with P63T, N64H, F299C

B1: HULC 181-201 mimic (ssRNA)
RNA: CAAAAUGCAUAUGUAUCUUUG
binding result [1]: no binding | binding result [2]: no binding | binding result [3]: no binding | binding result [4]: binds
